Measured values: the DeepSol protein solubility set

Assay: soluble on expression in E. coli; label from the status in PepcDB or PDB records

| Sequence | soluble on expression in E. coli |
| --- | --- |
| MGSDKIHHHHHHMMVPHLTTALTGPLLTLEKRLLDNMPRIEHWFRSQWQEYGAPFYASVDLRNAGFKLAPVDTNLFPGGFNNLNPDFLPLCIQAAMVAVEKICPDARRLLLIPENHTRNTFYLRNVHALTHILRQAGLEVRIGSIAPEITAPTFLETHDGHSILLEPVRRKANRLELDNFDSCAILLNNDLSGGIPDILQGLEQSLIPPLHAGWATRRKSNHFTAYDRVVEEFAPLIDIDPWLLNPYFDTCGGLDFHARLGEEQLAEKVDSLLAKIRRKYAEYGVKQEPFVIVKADAGTYGMGIMTVKSADDVRDLNRKQRNKMSVVKEGLKVSEVILQEGVYTFEHLKDAVAEPVIYMMDHFVVGGFYRVHTSRGADENLNAPGMHFEPLTFETPCSTPDCAGAPDAAPNRFYAYGVVARLALLAATIELQETDPDLLDERT | not soluble |
| MQRIELLPLVLDNQTFFQNCPDIIPRIIPFSPCLDGSEVNFICGPLHTGKTSFLRQVAGSLQGLKVYINFEDSRFRDLKPETLQEIKEIAAEYCIKGPEDEEGLAGKDIDDKERPEVPVSYFLDEIHYLPGWGDRVYSLQNDGARVFVTSSSAGIISKEISSRFADGIKIIRLLPFSFKEYLTLKGLRVPRPNFLTPSRCDEMLCLFLQYFENGGFPEIIKSGDFRLSRKYFEETLQKEIIERHTIQDPEGLKKLAVFLISNMASEYSIDTLKRAGGIKDEATVRNYLDYLEEAFLLYRVPMFRHKSEKPDYGKEGENENERESNIPCKVYAGDTGFFKSVFPRYPDSLGLRFENLVFLELLRKGKQVYYFHNTRECDFLIAEKESQKVTAAVQVCLCFGGTAVREREVLGLMEAMEEFGLNEGLILTMDDEEVMEIEGKDGENKRIIINSVWKWMLELEHHHHHH | not soluble |
| MGHHHHHHSHSHTIRDLKYTIENPRHFVDSHHQKPVNAIIEHVRDGSVVRALLLPDYYLVTVMLSGIKCPTFRREADGSETPEPFAAEAKFFTESRLLQRDVQIILESCHNQNILGTILHPNGNITELLLKEGFARCVDWSIAVYTRGAEKLRAAERFAKERRLRIWRDYVAPTANLDQK | not soluble |
| MDGLDYFEPNPDYRVAATVEVDDSDETITMETTAEGERLYERVARLTFEVPDASDNRDEHTLVAYQRVDQRGDGSLFVPFRDKTTGQQTYPAGRYMELHYEGDLEDGATVPLDFNLAYNPFCAYSDAYECPLPPQENWLEIVVPAGERDDQLEHHHHHH | soluble |
| MSLDIKTLKGFKDYLPKDSLIRIHIVRQIFSVLNSYNFDLIDTPVLEYSDLLLKKSGDETEKQIYRFKDNGGRDVSMRFDLTVPFARFVATNISALKLPFRRSQFGKVFRGENSQKGRYREFMQFDFDIVGEDTFRGDAEILSVVYYGLEEIFLNFIEGINKKFIIHYSHIGILNSFFEKLGLKEKSIFILRNIDKIDKIGIDKVKEALLLEIEKEAVDSILSLVSLQGTFKDKIQALKSILGDNESIKRVEDVFQHLSLLKIQDSFNLNLKISRGLDYYTGIVFESEVFGSNMGSVCSGGRYDNLVSSFSNSIQKISGVGGSFGVDRIKDIIDLEKFSYIKIFVTKARSKVLIVNLDSALQNYYYELATRFRNHDYSKVKNISCEVYFKNKNGKNIKEQIEYALSKEIRFLVFVGQEEYKENKMKVRDLTKKEELLLSFEESINLIKCNEKLEGHHHHHH | soluble |
| MGSDKIHHHHHHMSVMFDPQAAIYPFPPKPTPLNDDEKQFYREKIKRLLKERNAVMVAHYYTDPEIQQLAEETGGCISDSLEMARFGTKHAASTLLVAGVRFMGETAKILSPEKTILMPTLAAECSLDLGCPIDEFSAFCDAHPDRTVVVYANTSAAVKARADWVVTSSIAVELIEHLDSLGEKIIWAPDRHLGNYVQKQTGADVLCWQGACIVHDEFKTQALTRLKKIYPDAALLVHPESPQSIVEMADAVGSTSQLIKAAKTLPHRQLIVATDRGIFYKMQQAVPEKELLEAPTAGEGATCRSCAHCPWMAMNGLKAIAEGLEQGGAAHEIQVDAALREGALLPLNRMLDFAATLRA | not soluble |
| GPGSMNPSAAAYIPQQSDAKGDPKSSSAAAVAKPPSTQPATKLSAAAEPFVPGGPKQMSATSTHVDPKATTEDEKTTAPLLMECPASSLPDSAAAAGAAKKEADENDDSQLDWLPEAQPTDWSESKLPKLFGCHNTAAKATSSAIPLHASWDLYADDHQGSSNMASNSSPTSTMSFEPIFVSNVGDVESFWRLWRYLPAPSALPTVYTYSWFRKDIKPEWEHPRNKKGGTISIVVFDRDRSGLSDKQVLDDVFMAMLVGAVGESFHECSTTLNGIMLKVRSNKPVTLQLWTAHSEVGKLKAFANSVRDTLTKIMGAKTLQKLEYYSHHQKQAATNSLAARMKGKTKISPDHTF | soluble |
| MHHHHHHSSGVDLGTENLYFQSMARLPKLAVFDLDYTLWPFWVDTHVDPPFHKSSDGTVRDRRGQDVRLYPEVPEVLKRLQSLGVPGAAASRTSEIEGANQLLELFDLFRYFVHREIYPGSKITHFERLQQKTGIPFSQMIFFDDERRNIVDVSKLGVTCIHIQNGMNLQTLSQGLETFAKAQTGPL | soluble |
| MSLNDIIEQLQELSETVPVPLELPTFEQLVEVEEQILIGLPNDLKEFLMYGSDVIYGTLEPVTAADPSSHTYLPEVACYAWSIGLPREQIAICQIGDSFYCIDEESQVMFWKKGRFSDKVWESFWHWAEDVWLNREGHHHHHH | soluble |
| SESQDIKALQKELEQFAKLLKQKRITLGYTQADVGLTLGVLFGKVFSQTTICRFEALQLSFKNMCKLRPLLQKWVEEADNNENLQEICKAETLVQARKRKRTSIENRVRGNLENLFLQCPKPTLQQISHIAQQLGLEKDVVRVWFCNRRQKGKRSSSDYAQ | soluble |
| MEHIEIRVSATGSMSSFHALCSFHQWPINVACSCWLSHCYRIYSLYPPQLVSCSDRLSTSGNTNAGAEFVTE | soluble |
| MGVSLAKGGNVSLSKEAPGLTAVLVGLGWDVRTTTGTDYDLDASALLLDTSGKVLSDGHFVFYNNLTSPDGSVEHTGDNLTGEGEGDDEAVKVNLVAVPAEVDRIVFPVSIHDAENRGQSFGQVRNAFIRVVNQANNQELARYDLSEDASTETAMVFGELYRHGAEWKFRAVGQGYASGLAGIAADFGVNV | not soluble |
| MAHHHHHHMTRTKVKKVQMQMKARETVAPPSTACTTTRCLYTLTTFDVKSGGVKTSGEFPAGGGPKLPRDPLLHYFVKSLHGFLSTCLVVTSQRLVTFSANNNFFCIATVFPTLHTSPSVKNSKSLALRGKTENVVTERLGV | not soluble |
| NAFVSIQTSTIPKTAFVARDFVPLQNRGNQWVAPVRASEDDPALAKSYLDFAIIEVPLFLHNQMDKQIYDHFMRPAINTYERLGNSVGIFAYQPMASFKRDSYFALGYPQVESNIAALNLNQTEVKPTRPEDVAQVTFKEPWSVDHHREIPTLTTNQLTTIKTKHFSGSKLSWPFDHTKSF | not soluble |
| MALPVTSSANQPTGTNNVAATKCKGCFCPGNPCQLCRLPPHTDDPIPENEPETCRLIREAVPPASFQPGENEYFANLDKATIQCIRSGDVIPNTRRVPGYPGRVYCKPGLPALGAH | not soluble |
| MSLGQVFYYQPEQVHLSFGESPLEIVVTWSTMTATNESIVEYGIGGLILSATGTETKFVDGGPAKRTQYIHRVVLRDLQPSSRYEYHCGSRWGWSAEFYFHTTPAGTDWSPSLAIFGDMGNENAQSMARLQEDTQRHMYDAILHVGDFAYDMNTDDALVGDQFMNQIQSIAAYTPYMVCAGNHEEKYNFSNYRARFSMPGGTENIMYSFNLGPVHFIGFSTEVYYFMNYGLKPLVKQYEWLRRDLEEANRPENRKLRPWIVTYGHRPMYCSNDNDNDCTHSETLVRVGLPFMHWFGLEDLFYEHGVDVEIWAHEHSYERLFPIYDYKVYNGSYEEPYRNPRAPVHLVTGSAGCKEGREPFINKIPTWSAIHSRDYGYTRMKAINGSHLYFEQISVDKEGAVIDSFTIIKDEGHHHHHH | soluble |
| EEKLVKIAGFGGQGVLSMGLTLAEAACRDQKYVSWYPSYGPEQRGGTSNCSVIISGHEIGSPVVYSPGVLIALNKPSLENFAKDVKTGGTIIYDENIGDFEIPNGVTAIKVPASKIATEMGVSRAANTVMLGVLSALGYTGLSESVFVGAIEQTFSKKPKLIPINVEILNAGISWAKE | not soluble |
| MGSDKIHHHHHHMSLPLYQQISDDLKQKIVTKTFKSGDQLPTEKELSETYSVSRITAKRALTELEQLGLVSRTRGKGTFVQELNKNHTKLLKRVLFIIPFEGMSFGDFTQGLVPALKVENTTVFITYESYLKENTADDIKENFDGLIYYPMYTEDYLDILLELSLQNFPVVLLDKQIYDLGFPCVSSDNFNGGEQAAQALLNLGHKRIAFVASNDTHHPQTTRNRYLGYVKVLKEQGIKFHTTLDDSLYTESSVLELIHNEKVTGLICENDLVALQTMKTLQDSHFSVPNDISIIGFDDIQAASLSNPPLTTIAQDFIGMGRIAGELLLDWIKSGQTPKDVKVPINLIKRKTTEELK | not soluble |
| MGSDKIHHHHHHMARKPIDRPVHIPPLQALRALEAAARHRSFSRAAEELALTHSAISHHMRALEDKLGTKLFQRTGSQMAPTSAGARLAEQIRAALDDIESAVREASSSTTTPVVRLQVSVMADLANAWLIRRLPSLHAQVPSLDLHLRLHAEITPPDPYSVDVGIWHQRIDLPGFECHNLIEDHVIAVASPALLARYPGFTPADVPRMPMLRFALRPWRDWLEAAGLPDAEPERGPIFQDAGLMLQSAVAGLGVATARAQLAHDYLESGQLVQVGSTRIPSSLHYWVTWREGNPREKAIQQFHAWLQEQVRRETPTAEPTTTDDAMK | not soluble |
| MSFTPELNMAVCEFNLDSGCNAKESLIEMANNKISLETFKEHNIKALTMKYVNSESMMWEARKIVRIISRLEADEHQSRVAPKRSRSPGSTSPSASNSSSSSSELSFDMFSSKRTVPMKVTSKPKRVIAQASRTMKPHQQESRQESAEKDRANDEKLKKFIESRKLKEQAKKAANIQKCNEVKEAVMFPAKRMKKRQLEQYAYRFK | not soluble |
| MNSENSFSSSEHITVLLHEAVNGLALKENGIYIDGTFGRGGHSRFILSQLSSNGRLIAVDRDPRAIAEAHKIQDLRFQIEHNSFSHIPEICDKLNLVGKIDGILLDLGVSSPQLDEAERGFSFMKDGPLDMRMDTTQGLSAEEWLKQVSIEDLTWVLKTFGEERFAKRIATAIVDFNKSAVKNGTEFLSRTSQLAELISQAVPFKDKHKHPATRSFQAIRIFINSELDELESLLNSALDMLAPEGRLSIISFHSLEDRMVKHFMKKQSKGEDIPKGLPLREDQIQRNQKLRIIGKAIQPSDAEIQANPRSRSAILRVAERI | not soluble |
| MAEITEVRIYKSKGNGSVKAYASVSFDNEFVVKGLKVVEGEKGLWVSMPSRRMKDGSFQDVFHPVSREARDKIVDAVLKAYQEQE | not soluble |
| MSLAISQEQKQAIDQALTERLLHHPFYQEAKVIATYLSFSHEFQTRELIEQALKDGKKVLIPKTYPKGRMEFVAYDPQQLVKTSFALLEPQGDVEVVDASQIDLIHVPGLAFTTKGYRIGYGGGYYDRYLEHFSGRTLSTIYPCQIQDFIPENHDIPVQEVLIDEGNLEGHHHHHH | soluble |
| MGSDKIHHHHHHVRFCCHHDWLYGVLHLPQQPVTRGVLIVVGGPQYRVGSHRQFVLLARYLAERGIAVMRFDFRGMGDSDGEIRTFEHVGEDLRSAADFFFSECPFLEDIVIWGLCDAASAALFHAHQDSRVSGLVLLNPWVRTEQGIAKAYLKHYYLERLFDPEFWKKLLGGKFNPLASIRSLYEFGRNSLRGGKSPAVSEKSAGSACDLTVPLPERMLDGLKRFQGKILIITSGNDLTAREFLDLVDSSADWQATLRTKQTELCHMESANHTFSTREWRDQVTELTANRVLSW | not soluble |
